PMC11272584 (Nature Metabolism, 2024)
Changes are numbered by the printed parent chain. In names and notes the source's numbering stands.

T1: GIPR P195R (Homo sapiens, UniProt P48546, P195R)
T1 construct: host or cells: HEK293
T1 sequence (P48546 22-466 P195R): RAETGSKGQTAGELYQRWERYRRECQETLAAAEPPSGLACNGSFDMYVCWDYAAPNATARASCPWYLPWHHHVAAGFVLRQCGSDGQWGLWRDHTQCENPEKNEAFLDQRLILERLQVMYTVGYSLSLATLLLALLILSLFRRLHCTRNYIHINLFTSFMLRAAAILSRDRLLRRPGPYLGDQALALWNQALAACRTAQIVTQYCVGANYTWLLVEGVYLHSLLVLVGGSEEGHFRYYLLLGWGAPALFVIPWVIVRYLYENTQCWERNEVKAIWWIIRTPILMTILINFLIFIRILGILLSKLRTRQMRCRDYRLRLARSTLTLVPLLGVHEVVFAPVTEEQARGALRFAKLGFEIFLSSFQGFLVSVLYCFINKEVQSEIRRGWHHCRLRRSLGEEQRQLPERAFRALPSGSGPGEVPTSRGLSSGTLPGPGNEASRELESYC

T2: GIPR T168A (Homo sapiens, UniProt P48546, T168A)
T2 construct: host or cells: HEK293
T2 sequence (P48546 22-466 T168A): T1 sequence (P48546 22-466 P195R) with T147A, R174P

T3: GIPR R164W (Homo sapiens, UniProt P48546, R164W)
T3 construct: host or cells: HEK293
T3 sequence (P48546 22-466 R164W): T1 sequence (P48546 22-466 P195R) with R143W, R174P

T4: GIPR A185V (Homo sapiens, UniProt P48546, A185V)
T4 construct: host or cells: HEK293
T4 sequence (P48546 22-466 A185V): T1 sequence (P48546 22-466 P195R) with A164V, R174P

T5: GIPR A207V (Homo sapiens, UniProt P48546, A207V)
T5 construct: host or cells: HEK293
T5 sequence (P48546 22-466 A207V): T1 sequence (P48546 22-466 P195R) with R174P, A186V

T6: GIPR R190Q (Homo sapiens, UniProt P48546, R190Q)
T6 construct: host or cells: HEK293
T6 sequence (P48546 22-466 R190Q): T1 sequence (P48546 22-466 P195R) with R169Q, R174P

T7: GIPR H166Y (Homo sapiens, UniProt P48546, H166Y)
T7 construct: host or cells: HEK293
T7 sequence (P48546 22-466 H166Y): T1 sequence (P48546 22-466 P195R) with H145Y, R174P

T8: GIPR R183Q (Homo sapiens, UniProt P48546, R183Q)
T8 construct: host or cells: HEK293
T8 sequence (P48546 22-466 R183Q): T1 sequence (P48546 22-466 P195R) with R162Q, R174P

B1: P195R (protein)
chain: T1 sequence (P48546 22-466 P195R)
B2: T168A (protein)
chain: T1 sequence (P48546 22-466 P195R) with T147A, R174P
B3: R164W (protein)
chain: T1 sequence (P48546 22-466 P195R) with R143W, R174P
B4: H166Y (protein)
chain: T1 sequence (P48546 22-466 P195R) with H145Y, R174P
B5: A185V (protein)
chain: T1 sequence (P48546 22-466 P195R) with A164V, R174P
B6: A207V (protein)
chain: T1 sequence (P48546 22-466 P195R) with R174P, A186V
B7: R183Q (protein)
chain: T1 sequence (P48546 22-466 P195R) with R162Q, R174P
B8: R190Q (protein)
chain: T1 sequence (P48546 22-466 P195R) with R169Q, R174P

Biological target: T1, GIPR P195R
Experiment: cAMP accumulation
Format: cell-based
Conditions: not given

| Molecule | Efficacy at 100pmol (cAMP) |
| --- | --- |
| B1 | 0.117 |

Biological target: T2, GIPR T168A
Experiment: cAMP accumulation
Format: cell-based
Conditions: not given

| Molecule | Efficacy at 100pmol (cAMP) |
| --- | --- |
| B2 | 0.2182 |

Biological target: T3, GIPR R164W
Experiment: cAMP accumulation
Format: cell-based
Conditions: not given

| Molecule | Efficacy at 100pmol (cAMP) |
| --- | --- |
| B3 | 0.003189 |

Tested on: GIPR variants (groups)
Experiment: β-arrestin 2 recruitment (BRET);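 also: BRET readout of β-arrestin 2 recruitment in transiently transfected HEK293 cells expressing WT GIPR or a GIPR variant plus GPCR kinase 2, Rluc8 donor and citrine acceptor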
Conditions: arr part of the in vitro group
Experimental: Both cell lines were cultured at 5% CO2 at 37 °C in Roswell Park Memorial Institute GlutaMAX-I supplemented with 10% fetal bovine serum, 180 units ml^−1 penicillin, and 45 g ml^−1 streptomycin. […] The polyethyleneimine (PEI) transfection method was used for the β-arrestin 2 recruitment assays[50], endosomal signalling and basal receptor localization assays, while the lipofectamine transfection method was used for the internalization assay.
Measurement of β-arrestin 2 recruitment was performed with a BRET assay. Two days before the assay, the HEK293 cells were transiently transfected with either WT GIPR or the GIPR variants together with the donor Rluc8-Arrestin-3-Sp1, the acceptor mem-linker-citrine-SH3 and the GPCR kinase 2 to facilitate β-arrestin 2 recruitment. On assay day, the cells were washed with PBS and resuspended in PBS supplemented with 5 mmol l^−1 glucose. Subsequently, 85 µl of the cell suspension was transferred to a white 96-well plate and 10 µl of 50 µM coelenterazine-h was added.

| Molecule | In vitro groups (β-arrestin) |
| --- | --- |
| B3 | LoF_arr |
| B4 | LoF_arr |
| B5 | WT-like_arr |
| B1 | WT-like_arr |
| B6 | WT-like_arr |
| B2 | LoF_arr |
| B7 | LoF_arr |
| B8 | LoF_arr |

Same assay, conditions: in vitro β-arrestin recruitment per GIPR variant

| Molecule | Beta, Barr |
| --- | --- |
| B3 | 0 |
| B4 | 0.3616 |
| B5 | 0.8905 |
| B1 | 0.8561 |
| B6 | 0.8334 |
| B2 | 0.2206 |
| B7 | 0.03853 |
| B8 | 0.1131 |

Biological target: T4, GIPR A185V
Experiment: cAMP accumulation
Format: cell-based
Conditions: not given

| Molecule | Efficacy at 100pmol (cAMP) |
| --- | --- |
| B5 | 0.2646 |

Biological target: T5, GIPR A207V
Experiment: cAMP accumulation
Format: cell-based
Conditions: not given

| Molecule | Efficacy at 100pmol (cAMP) |
| --- | --- |
| B6 | 0.1592 |

Biological target: T6, GIPR R190Q
Experiment: cAMP accumulation
Format: cell-based
Conditions: not given

| Molecule | Efficacy at 100pmol (cAMP) |
| --- | --- |
| B8 | 0.008847 |

Biological target: T7, GIPR H166Y
Experiment: cAMP accumulation
Format: cell-based
Conditions: not given

| Molecule | Efficacy at 100pmol (cAMP) |
| --- | --- |
| B4 | 0.9566 |

Biological target: T8, GIPR R183Q
Experiment: cAMP accumulation
Format: cell-based
Conditions: not given

| Molecule | Efficacy at 100pmol (cAMP) |
| --- | --- |
| B7 | 0 |

Tested on: GIPR variants (groups)
Experiment: cAMP accumulation
Format: cell-based, human
Conditions: cAMP part of the in vitro group
Experimental: HEK293 (CRL-1573, American Type Culture Collection) and β-arrestin 1/2 knockout cells, generated from HEK293A[48], were used for cAMP measurement, homologues competition binding and β-arrestin 2 recruitment. For the internalization assay, endosomal signalling and basal receptor localization experiments, HEK293A (R70507, Thermo Fisher) cells were used. Both cell lines were cultured at 5% CO2 at 37 °C in Roswell Park Memorial Institute GlutaMAX-I supplemented with 10% fetal bovine serum, 180 units ml^−1 penicillin, and 45 g ml^−1 streptomycin. For the cAMP and binding experiments, cells were transfected with the calcium phosphate precipitation method[49]. The polyethyleneimine (PEI) transfection method was used for the β-arrestin 2 recruitment assays[50], endosomal signalling and basal receptor localization assays, while the lipofectamine transfection method was used for the internalization assay.
cAMP production was measured with the DiscoverX Hithunter cAMP assay according to the manufacturer’s protocol (DiscoverX). […] On the day of the assay, the cells were washed twice with HEPES-buffered saline (HBS) and incubated with HBS and 1 mM 3-isobutyl-1-methylxanthine for 30 min at 37 °C. […] After the incubation, the assay medium was removed from the plate and the cells were washed with 30 µl PBS and treated with 40 µl enzyme donor–lysis buffer–chemiluminescent reagents and 10 µl cAMP antibodies for 60 min before 40 µl enzyme acceptor solution added. After a 3-h incubation on a shaking table in the dark, the cAMP accumulation was measured based on luminescence with a Perkin Elmer EnVision 2104 Multilabel Microplate Reader.
For cAMP accumulation, the data were fitted as a sigmoidal curve with a Hill slope of 1; for homologous competition binding, the data were fitted as a sigmoidal curve with a Hill slope of −1.

| Molecule | In vitro groups (cAMP) |
| --- | --- |
| B3 | LoF_camp |
| B4 | WT-like_camp |
| B5 | LoF_camp |
| B1 | LoF_camp |
| B6 | LoF_camp |
| B2 | LoF_camp |
| B7 | LoF_camp |
| B8 | LoF_camp |

Same assay, conditions: cAMP production compared with WT

| Molecule | percentage_camp |
| --- | --- |
| B3 | <50% cAMP |
| B4 | >50% cAMP |
| B5 | <50% cAMP |
| B1 | <50% cAMP |
| B6 | <50% cAMP |
| B2 | <50% cAMP |
| B7 | <50% cAMP |
| B8 | <50% cAMP |

Same assay, conditions: in vitro cAMP production per GIPR variant

| Molecule | Beta, cAMP |
| --- | --- |
| B3 | 0.003189 |
| B4 | 0.9566 |
| B5 | 0.2646 |
| B1 | 0.117 |
| B6 | 0.1592 |
| B2 | 0.2182 |
| B7 | 0 |
| B8 | 0.008847 |
